These results are taken from IntAct's records for PubMed 7664803.

The chains are these.
B1: Proto-oncogene tyrosine-protein kinase LCK (Mus musculus), P06240 (parent)
chain: MGCVCSSNPEDDWMENIDVCENCHYPIVPLDSKISLPIRNGSEVRDPLVTYEGSLPPASPLQDNLVIALHSYEPSHDGDLGFEKGEQLRILEQSGEWWKAQSLTTGQEGFIPFNFVAKANSLEPEPWFFKNLSRKDAERQLLAPGNTHGSFLIRESESTAGSFSLSVRDFDQNQGEVVKHYKIRNLDNGGFYISPRITFPGLHDLVRHYTNASDGLCTKLSRPCQTQKPQKPWWEDEWEVPRETLKLVERLGAGQFGEVWMGYYNGHTKVAVKSLKQGSMSPDAFLAEANLMKQLQHPRLVRLYAVVTQEPIYIITEYMENGSLVDFLKTPSGIKLNVNKLLDMAAQIAEGMAFIEEQNYIHRDLRAANILVSDTLSCKIADFGLARLIEDNEYTAREGAKFPIKWTAPEAINYGTFTIKSDVWSFGILLTEIVTHGRIPYPGMTNPEVIQNLERGYRMVRPDNCPEELYHLMMLCWKERPEDRPTFDYLRSVLDDFFTATEGQYQPQP

In test [1] the parent is B1. Particulars: with cd4_mouse Cd4, P06332.
cd4_mouse Cd4, P06332, sequence (P06332 whole entry): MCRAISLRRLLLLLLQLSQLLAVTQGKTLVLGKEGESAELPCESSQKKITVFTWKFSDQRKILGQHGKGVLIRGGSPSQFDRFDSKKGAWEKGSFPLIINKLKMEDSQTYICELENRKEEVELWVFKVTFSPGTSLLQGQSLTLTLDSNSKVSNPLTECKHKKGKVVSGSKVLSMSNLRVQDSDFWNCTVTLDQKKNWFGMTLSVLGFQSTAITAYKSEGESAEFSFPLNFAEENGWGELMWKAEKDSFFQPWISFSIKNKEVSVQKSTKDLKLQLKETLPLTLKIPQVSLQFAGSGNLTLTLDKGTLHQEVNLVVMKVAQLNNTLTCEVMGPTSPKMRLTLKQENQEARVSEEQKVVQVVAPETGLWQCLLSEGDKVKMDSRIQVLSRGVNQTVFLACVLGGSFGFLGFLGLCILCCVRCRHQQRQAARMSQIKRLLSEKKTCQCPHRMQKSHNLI
Test [2] covers variants of B1. Particulars: with cd8a_mouse Cd8a.

For the variant C20A, the “effect of a mutation on the interaction” value in test [1] and in test [2] was “decreasing interaction” each time.

As to C23A, the “effect of a mutation on the interaction” value in test [1] and in test [2] was “decreasing interaction” throughout.
